In PMC4902170 (JCI insight, 2016):
Where two headings read alike, the source gives them in different places. Each block holds one molecule with its values, some of them ahead of it.

Tests used:
Experiment in all cases: SPR
[1] = target: Human haptoglobin (from pooled human plasma, a mixture of 1-1, 2-1, and 2-2 phenotype) (human) (UniProt P00738)
[2] = target: T1, Recombinant human CD163 protein (human, UniProt Q86VB7-1 42-1050)
[3] = target: T1, Recombinant human CD163 protein; remark: listed apart in the source

T1 sequence (Q86VB7 42-1050): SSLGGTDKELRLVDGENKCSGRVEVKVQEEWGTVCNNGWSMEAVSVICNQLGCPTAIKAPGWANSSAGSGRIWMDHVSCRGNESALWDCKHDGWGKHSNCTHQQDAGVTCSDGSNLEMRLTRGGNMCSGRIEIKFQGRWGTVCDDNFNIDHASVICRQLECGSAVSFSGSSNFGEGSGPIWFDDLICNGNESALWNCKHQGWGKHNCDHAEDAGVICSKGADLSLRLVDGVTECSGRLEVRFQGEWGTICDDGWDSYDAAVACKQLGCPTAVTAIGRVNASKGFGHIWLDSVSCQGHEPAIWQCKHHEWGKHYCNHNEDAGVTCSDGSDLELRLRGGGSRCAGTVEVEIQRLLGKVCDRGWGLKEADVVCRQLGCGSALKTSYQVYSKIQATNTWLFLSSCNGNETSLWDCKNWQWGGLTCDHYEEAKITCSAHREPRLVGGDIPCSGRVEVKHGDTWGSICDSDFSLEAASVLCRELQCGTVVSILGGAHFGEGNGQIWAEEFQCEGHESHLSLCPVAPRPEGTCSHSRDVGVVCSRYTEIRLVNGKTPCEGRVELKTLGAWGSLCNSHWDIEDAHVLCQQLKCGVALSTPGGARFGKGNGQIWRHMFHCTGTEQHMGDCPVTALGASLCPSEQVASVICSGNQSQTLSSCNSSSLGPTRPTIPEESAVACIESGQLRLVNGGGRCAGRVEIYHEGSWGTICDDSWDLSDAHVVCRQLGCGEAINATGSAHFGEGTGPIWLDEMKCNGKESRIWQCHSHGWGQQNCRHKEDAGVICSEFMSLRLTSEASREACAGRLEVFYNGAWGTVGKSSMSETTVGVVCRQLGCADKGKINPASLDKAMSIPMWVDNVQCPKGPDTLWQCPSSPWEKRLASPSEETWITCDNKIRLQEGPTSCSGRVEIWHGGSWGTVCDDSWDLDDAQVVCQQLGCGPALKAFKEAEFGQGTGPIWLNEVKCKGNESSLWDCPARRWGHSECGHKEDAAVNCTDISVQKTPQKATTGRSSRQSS

Kd [1]: 64 nM
Molecule: Recombinant HMGB1 (redox form not stated for the experiment) (from UniProt P09429 1-215) (natural protein)

Kd [2]: 130 nM
B1: HMGB1 and haptoglobin complexes (1:1 molar ratio) (complex)
chain 1: GKGDPKKPRGKMSSYAFFVQTCREEHKKKHPDASVNFSEFSKKCSERWKTMSAKEKGKFEDMAKADKARYEREMKTYIPPKGETKKKFKDPNAPKRPPSAFFLFCSEYRPKIKGEHPGLSIGDVAKKLGEMWNNTAADDKQPYEKKAAKLKEKYEKDIAAYRAKGKPDAAKKGVVKAEKSKKKKEEEDDEEDEEDEEEEEEEEDEDEEEDDDDE
chain 2: VDSGNDVTDIADDGCPKPPEIAHGYVEHSVRYQCKNYYKLRTEGDGVYTLNDKKQWINKAVGDKLPECEADDGCPKPPEIAHGYVEHSVRYQCKNYYKLRTEGDGVYTLNNEKQWINKAVGDKLPECEAVCGKPKNPANPVQ
chain 3: ILGGHLDAKGSFPWQAKMVSHHNLTTGATLINEQWLLTTAKNLFLNHSENATAKDIAPTLTLYVGKKQLVEIEKVVLHPNYSQVDIGLIKLKQKVSVNERVMPICLPSKDYAEVGRVGYVSGWGRNANFKFTDHLKYVMLPVADQDQCIRHYEGSTVPEKKTPKSPVGVQPILNEHTFCAGMSKYQEDTCYGDAGSAFAVHDLEEDTWYATGILSFDKSCAVAEYGVYVKVTSIQDWVQKTIAEN

Kd [3]: > 1000 nM
B2: Recombinant HMGB1 (redox form not stated for the experiment) (natural protein, human, UniProt P09429 1-215, looked up)
chain: MGKGDPKKPRGKMSSYAFFVQTCREEHKKKHPDASVNFSEFSKKCSERWKTMSAKEKGKFEDMAKADKARYEREMKTYIPPKGETKKKFKDPNAPKRPPSAFFLFCSEYRPKIKGEHPGLSIGDVAKKLGEMWNNTAADDKQPYEKKAAKLKEKYEKDIAAYRAKGKPDAAKKGVVKAEKSKKKKEEEEDEEDEEDEEEEEDEEDEDEEEDDDDE
